In general, Kd refers to the constant that tells how readily two partners part at equilibrium.

For the assay, the target named is FITC-labeled 45-mer peptide derived from the C-terminal region of IKKβ. As to the kind of experiment: fluorescence polarisation; fluorescence anisotropy binding assay with an FITC-labeled 45-mer peptide of IKKβ and bacterially expressed full-length NEMO proteins; conditions not told here (refs 13, 26). A general note: Fluorescence polarisation rises when a labelled molecule tumbles more slowly, as on binding a larger partner.

Sequence of full-length WT NEMO (aa 1-419), bacterially expressed (Q9Y6K9 whole entry, the tested form may be a part): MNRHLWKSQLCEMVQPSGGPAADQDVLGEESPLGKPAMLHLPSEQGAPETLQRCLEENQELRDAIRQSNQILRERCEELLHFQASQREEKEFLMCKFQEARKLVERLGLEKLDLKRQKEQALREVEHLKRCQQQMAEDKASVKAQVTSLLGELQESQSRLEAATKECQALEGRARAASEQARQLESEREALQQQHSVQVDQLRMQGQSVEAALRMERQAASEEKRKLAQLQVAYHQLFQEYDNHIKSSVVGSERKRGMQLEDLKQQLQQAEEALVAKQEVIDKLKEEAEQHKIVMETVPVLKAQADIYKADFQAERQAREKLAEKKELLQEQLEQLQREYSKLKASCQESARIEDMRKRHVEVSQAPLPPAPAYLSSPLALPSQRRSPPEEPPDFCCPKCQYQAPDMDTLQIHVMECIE

As to “OPTN-IVD-NEMO (aa 1-419), bacterially expressed (from UniProt Q9Y6K9 1-419) (natural protein)”, the Kd stood at 33 nM.

Turning to “full-length WT NEMO (aa 1-419), bacterially expressed (from UniProt Q9Y6K9 1-419) (natural protein)”, the dissociation constant (Kd) was found to be 4.7 nM. This Kd is about 7-fold lower than that of the substance before.

Values taken from PMC10694592.
